Where a chain is given by its changes, count along the chain named. Positions of bridges follow the written chain, without caps; N, C: chain ends. Non-standard residues stand in square brackets, D forms with d. No end group written: not given here. R8 = C=CCCCCCC[C@@](C)(N)C(=O)O; S5 = C=CCCC[C@](C)(N)C(=O)O
How the values were obtained:
[1] = tested on: BAX protein in U937 cells; assay: Dynamic assessment of BAX protein levels (western blot); format: cell-based, human; details: 5 μM
Description: U937 cells were plated in 6-well plates (2×10^6 cells per well), treated with AZD0156 (5 μM), and the cells harvested and lysed at the indicated time points. Cell lysates were then subjected to electrophoresis and western blotting with BAX (Santa Cruz sc-493) and actin (Sigma #A1978) antibodies.

[2] = tested on: ATM S1981 and CHK2 S33/35 phosphorylation in U937 cells; assay: Phospho-signaling analysis (western blot); format: cell-based, human; details: 2 hr
Source text: Cells were then washed with PBS, lysed in 1% CHAPS buffer, and the supernatant collected for protein concentration determination by BCA kit. Samples were subjected to electrophoresis and western analysis using 1:1000 dilutions of phospho-ATM (S1981, Cell Signaling, #4526), ATM (Abcam, #ab78), phospho-CHK2 (Ser33/35, Cell Signaling, #2665), CHK2 (Cell Signaling, #2662), and actin (Sigma #A1978) antibodies.

[3] = tested on: MV4;11 cells; assay: Cell viability (CellTiter-Glo) and CalcuSyn synergy, MV4;11
Description: (§1) Cell viability and caspase-3/7 activation was measured using CellTiter-Glo and Caspase-Glo 3/7 chemiluminescence reagents (Promega), respectively, and luminescence was detected by a Spectramax M5 microplate reader. Synergy of drug interactions was calculated using the CalcuSyn software (Biosoft).

[4] = tested on: U937 cells; assay: Cell viability (CellTiter-Glo) and CalcuSyn synergy, U937; details: U937 cells (BFL-1-dependent)
Description: as §1

[5] = target: T1, His-BFL-1ΔC (Homo sapiens, UniProt Q16548); assay: Streptavidin pulldown from recombinant protein mixture, BFL-1; format: binding; details: equimolar mixture of recombinant MCL-1, BCL-XL, BFL-1 and biotinylated SAHB, silver stain
T1 construct: Recombinant anti-apoptotic BFL-1ΔC (aa 1-151) and its cysteine to serine mutants were cloned into PET17b; made in house; host or cells: Escherichia coli LOBSTR BL21(DE3)
T1 sequence (Q16548 1-151): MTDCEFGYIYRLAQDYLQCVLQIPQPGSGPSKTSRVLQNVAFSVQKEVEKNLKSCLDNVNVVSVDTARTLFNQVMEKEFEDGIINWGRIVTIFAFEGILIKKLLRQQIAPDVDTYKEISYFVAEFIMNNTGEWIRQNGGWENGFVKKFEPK
Description: (§2) WT His-BFL-1ΔC, BCL-XLΔC (tagless), and GST-MCL-1ΔNΔC (1 μM each) were combined and incubated with 3 mM DTT in PBS for thirty minutes at room temperature. Mixtures were treated with vehicle or the indicated C-terminally biotinylated NOXA SAHB (1 μM) for four hours and were then added to 30 μL PBS-washed high-capacity streptavidin (SA) agarose beads (Thermo Fisher Pierce) and incubated with rotation at room temperature for two hours. The beads were then washed three times with NP-40 lysis buffer (1% NP-40, 50 mM Tris pH 8, 100 mM NaCl, 2.5 mM MgCl2) and three times with PBS. To elute bound protein, beads were boiled for ten minutes with 10% SDS containing 10 mg/mL biotin. After elution, samples were boiled with 3×LDS and 2M DTT for twenty minutes. Gel electrophoresis using a 12% Bis-Tris gel was conducted on inputs (2%) and eluates (5 μL) and gels were developed using the Pierce silver staining kit (Thermo Fisher).

[6] = target: T2, BCL-XLΔC / FITC-BID BH3 (Homo sapiens, UniProt Q07817); assay: Competitive fluorescence polarization binding assay, BCL-XLΔC
T2 construct: Recombinant anti-apoptotic BCL-XLΔC (aa 1-212) and MCL-1ΔNΔC (aa 172-329); GST (N, cleaved yes); made in house; host or cells: Escherichia coli BL21(DE3)
T2 sequence (Q07817 1-212, stated change not applied): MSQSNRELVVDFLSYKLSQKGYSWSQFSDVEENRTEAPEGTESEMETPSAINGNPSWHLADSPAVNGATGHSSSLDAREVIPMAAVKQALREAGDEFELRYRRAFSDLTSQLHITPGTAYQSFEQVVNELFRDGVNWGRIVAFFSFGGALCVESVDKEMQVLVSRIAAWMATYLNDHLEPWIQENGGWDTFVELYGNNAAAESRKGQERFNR
Description: (§3) Fluorescence polarization (FP) assays were performed as previously described (Pitter et al., 2008 (supra)). Briefly, direct binding curves were first generated by FITC-BID BH3 (25 nM) with serial dilutions of anti-apoptotic protein, and FP was measured at 5 min on a SpectraMax M5 microplate reader (Molecular Devices). For competition assays, a serial dilution of acetylated or warhead-bearing NOXA SAHB was added to the indicated recombinant protein at ˜EC75 concentration, as determined by the direct binding assay. FITC-BID BH3 (25 nM) was then added and fluorescence polarization was measured at equilibrium. IC50 values were calculated by nonlinear regression analysis of competitive binding curves using PRISM software (GraphPad).

[7] = target: T3, FLAG-MCL-1 / tBID (Homo sapiens, UniProt Q07820); assay: MCL-1/tBID complex disruption in 293T lysates; format: binding; details: FLAG immunoprecipitation
T3 construct: expressed in transfected cells; host or cells: 293T (lysate)
T3 sequence (Q07820 whole entry): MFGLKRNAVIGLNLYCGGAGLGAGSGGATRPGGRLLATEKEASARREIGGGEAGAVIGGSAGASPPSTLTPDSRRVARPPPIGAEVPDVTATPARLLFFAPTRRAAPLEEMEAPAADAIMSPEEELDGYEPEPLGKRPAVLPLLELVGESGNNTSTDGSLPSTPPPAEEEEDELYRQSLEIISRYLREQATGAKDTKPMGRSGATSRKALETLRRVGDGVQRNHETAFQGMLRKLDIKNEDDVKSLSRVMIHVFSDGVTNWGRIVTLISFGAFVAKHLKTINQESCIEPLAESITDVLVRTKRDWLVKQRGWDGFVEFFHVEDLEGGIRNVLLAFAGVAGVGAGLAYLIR
Description: (§4) To evaluate the capacity of biotinylated SAHBs to compete with tBID for interactions with BFL-1 and MCL-1, 293T cells were transfected with either HA-BFL-1ΔC C4S/C19S or FLAG-MCL-1 in the p3XFLAG-CMV-10 vector (Sigma) as above. After 24 hr, cells were trypsinized, washed with PBS, lysed in 1% CHAPS buffer, and the supernatant collected for protein concentration determination by BCA kit. Lysate samples (0.5 mg) were incubated with 0.25 μM recombinant tBID (R&D Systems) and 5 μM biotinylated NOXA SAHBs for 6 h at RT. The mixtures were then subjected to HA or FLAG immunoprecipitation, followed by western analysis using 1:1000 dilutions of HA (Sigma Aldrich, #12CA5), FLAG (Sigma-Aldrich, F7425), and BID (Santa Cruz sc-11423) antibodies.

[8] = target: T4, MCL-1 (Homo sapiens, UniProt Q07820); assay: MCL-1 engagement in A375P lysates (streptavidin pulldown, MCL-1 western); format: binding; details: biotinylated SAHB
T4 construct: endogenous protein in lysates from the A375P melanoma cell line; endogenous in cells; host or cells: A375P melanoma cells (lysate)
Description: (§5) Cultured A375P and U937 cells were trypsinized or harvested, respectively, washed with PBS, and lysed by incubating with 1% CHAPS lysis buffer (1% CHAPS, 150 mM NaCl, 50 mM Tris pH 7.4, 100 μM DTT). The protein concentrations of the soluble fraction were measured using a BCA kit according to the manufacturer's instructions (Thermo Scientific). Lysate samples (1 mg) were incubated with vehicle or C-terminally biotinylated NOXA SAHBs (30 μM) overnight in 1% CHAPS lysis buffer at 4° C. Biotin capture was accomplished by incubating the mixture with high-capacity SA agarose (Thermo Scientific) for 2 hours at 4° C., followed by centrifugation and washing the pelleted beads three times with lysis buffer (1 mL). Bead-bound proteins were eluted by boiling in 10% SDS containing 10 mg/mL biotin for 10 minutes and then subjected to electrophoresis and western blotting using BFL-1 (Abcam, #125259) and MCL-1 (Rockland #600-401-394S) antibodies.

[9] = target: T5, BFL-1ΔC C4S/C19S/C55S / FITC-BID BH3 (Homo sapiens, UniProt Q16548, C19S/C4S/C55S); assay: Competitive fluorescence polarization binding assay, BFL-1ΔC C4S/C19S/C55S
T5 construct: Recombinant anti-apoptotic BFL-1ΔC (aa 1-151) and its cysteine to serine mutants were cloned into PET17b; hexahistidine (N); made in house; host or cells: Escherichia coli LOBSTR BL21(DE3)
T5 sequence (Q16548 1-151 C4S/C19S/C55S): T1 sequence (Q16548 1-151) with C4S, C19S, C55S
Description: as §3

[10] = target: T6, GST-MCL-1ΔNΔC (Homo sapiens, UniProt Q07820); assay: Streptavidin pulldown from recombinant protein mixture, MCL-1; format: binding; details: equimolar mixture of recombinant MCL-1, BCL-XL, BFL-1 and biotinylated SAHB, silver stain
T6 construct: BCL-XLΔC (aa 1-212) and MCL-1ΔNΔC (aa 172-329) were cloned into the PGEX-4T-1; made in house; host or cells: Escherichia coli BL21(DE3)
T6 sequence (Q07820 172-329, stated change not applied): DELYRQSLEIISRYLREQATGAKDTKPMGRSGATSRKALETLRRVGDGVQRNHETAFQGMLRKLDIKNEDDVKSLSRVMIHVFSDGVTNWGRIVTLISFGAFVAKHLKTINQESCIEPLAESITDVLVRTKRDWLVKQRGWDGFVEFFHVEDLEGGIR
Description: as §2

[11] = target: T7, BCL-XLΔC (tagless) (Homo sapiens, UniProt Q07817); assay: Streptavidin pulldown from recombinant protein mixture, BCL-XL; format: binding; details: equimolar mixture of recombinant MCL-1, BCL-XL, BFL-1 and biotinylated SAHB, silver stain
T7 construct: Recombinant anti-apoptotic BCL-XLΔC (aa 1-212) and MCL-1ΔNΔC (aa 172-329); GST (N, cleaved yes); made in house; host or cells: Escherichia coli BL21(DE3)
T7 sequence (Q07817 1-212, stated change not applied): as the sequence (Q07817 1-212, stated change not applied) above
Description: as §2

[12] = target: T8, HA-BFL-1ΔC C4S/C19S / tBID (Homo sapiens, UniProt Q16548, C19S/C4S); assay: BFL-1/BH3 complex disruption: competition with tBID in 293T lysates; format: binding; details: anti-HA immunoprecipitation
T8 construct: Recombinant anti-apoptotic BFL-1ΔC (aa 1-151) and its cysteine to serine mutants were cloned into PET17b; expressed in transfected cells; host or cells: 293T (lysate)
T8 sequence (Q16548 1-151 C4S/C19S): T1 sequence (Q16548 1-151) with C4S, C19S
Description: as §4

[13] = target: T9, full-length BFL-1 (Homo sapiens, UniProt Q16548); assay: Covalent crosslinking to full-length BFL-1, recombinant and HA-tagged expressed in 293T cells; format: binding; details: recombinant and expressed in 293T cells; somewhat reduced efficiency vs C-terminally truncated species
T9 construct: Recombinant full-length BFL-1 (aa-175) containing an N-terminal hexahistidine tag; made in house
T9 sequence (Q16548 1-175): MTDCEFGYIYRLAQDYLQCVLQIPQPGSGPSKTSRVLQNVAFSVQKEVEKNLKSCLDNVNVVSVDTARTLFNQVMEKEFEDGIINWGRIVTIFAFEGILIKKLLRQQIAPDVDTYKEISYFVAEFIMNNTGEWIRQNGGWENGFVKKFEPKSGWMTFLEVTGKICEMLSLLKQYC
Source text: We confirmed that both of our lead constructs could covalently crosslink to full-length BFL-1 protein, which bears a C-terminal helix that could potentially compete with D-NA-NOXA SAHBs for interaction at the canonical BH3-binding pocket in cancer cells. We generated recombinant full-length BFL-1 and expressed HA-tagged full-length BFL-1 in 293T cells, and then conducted crosslinking analyses in vitro and in treated cells, respectively.
Recombinant full-length BFL-1 (aa-175) containing an N-terminal hexahistidine tag was cloned into the PTYB1 vector (New England Biolabs) and purified as above except for the addition of a chitin affinity chromatography and DTT elution step. Protein purity and identity was confirmed by Coomassie staining and western blot analysis using a mouse monoclonal anti-His6 tag antibody (Abcam).
His-BFL-1ΔC C4S/C19S protein (5 μM) was pre-treated with 10 mM DTT in 50 mM Tris (pH 8.0) and 100 mM NaCl for 30 min at room temperature (final volume […]) and then combined with a 10:1 molar ratio of cysteine-reactive NOXA SAHB for an additional 1-hr incubation at room temperature. The samples were then boiled in 3× loading buffer with DTT and electrophoresed on 12% Bis-Tris gel, then subjected to Coomassie staining.

[14] = target: T10, native BFL-1 (Homo sapiens, UniProt Q16548); assay: BFL-1 targeting in A375P lysates (streptavidin pulldown, BFL-1 western); format: binding; details: biotinylated SAHB, compared to acetylated construct
T10 construct: endogenous in cells; host or cells: A375P melanoma cells (A10); U937 AML cells (A12), lysates
T10 sequence (Q16548 1-175): T9 sequence (Q16548 1-175)
Description: as §5

CN(C)CCCOc1ccc(-c2ccc3ncc4c(c3c2)n(C2CCOCC2)c(=O)n4C)cn1 [AZD0156]
protein level of pro-apoptotic BAX [1]: time-dependent increase in the protein level of pro-apoptotic BAX
ATM auto-phosphorylation at S1981 [2]: dose-responsive inhibition of S1981 auto-phosphorylation
CHK2 phosphorylation at S33/35 [2]: potent blockade of CHK2 phosphorylation even at the lowest treatment dose

Cc1c(-c2c(-c3ccc(F)o3)sc3ncnc(O[C@H](Cc4ccccc4OCc4ccnn4CC(F)(F)F)C(=O)O)c23)ccc(OCCN2CCN(C)CC2)c1Cl [S63845]
cytotoxic synergy upon co-treatment ([3]; MV4;11 cells (not dependent on BFL-1)): synergy in combination with ATM inhibition
cytotoxicity, single agent ([3]; MV4;11 cells (not dependent on BFL-1, dependent on MCL-1)): single agent activity
cytotoxicity, single agent [4]: no activity

*AT8LRRFGDXLNFRQ [Ac-NOXA SAHB, acetyl-capped i, i+7-stapled NOXA BH3 peptide (aa 26-40)]
BFL-1 binding / pull down [5]: little to no interaction with BFL-1

AT8LREFGDXLNFRQ (AT[R8]LREFGD[S5]LNFRQ; staple 3-10 (inferred); not fully specified (N-terminus); printed as AT8LREFGDXLNFRQ) [Ac-NOXA-15 R31E, acetylated counterpart of D-NA-NOXA-15 R31E]
competition for FITC-BID BH3 binding to BCL-XLΔC [6]: neither Ac- nor D-NA-NOXA-15 R31E is able to compete
dissociation of FLAG-MCL-1/tBID interaction [7]: neither D-NA- nor Ac-NOXA15 R31E is able to dissociate the interaction
MCL-1 engagement [8]: approximately equivalent binding to MCL-1
competition for FITC-BID BH3 binding to BFL-1ΔC C4S/C19S/C55S [9]: neither D-NA- nor Ac-NOXA15 R31E competes

AT8LRRAGDXLNFRQ (AT[R8]LRRAGD[S5]LNFRQ; staple 3-10; not fully specified (N-terminus); printed as AT8LRRAGDXLNFRQ) [Ac-NOXA-15 F32A, acetylated counterpart of D-NA-NOXA-15 F32A]
MCL-1 binding / pull down [10]: detectable but minimal direct interaction
BFL-1 binding / pull down [5]: no binding
BCL-XL binding / pull down [11]: no binding
competition with tBID for HA-BFL-1ΔC C4S/C19S interaction [12]: incapable of competing with tBID for HA-BFL-1 binding
dissociation of FLAG-MCL-1/tBID interaction [7]: neither D-NA- nor Ac-NOXA15 F32A is able to dissociate the interaction
MCL-1 engagement [8]: approximately equivalent binding to MCL-1

JAT8LRRAGDXLNFRQ [D-NA-NOXA-15 F32A]
covalent crosslinking to full-length BFL-1 [13]: covalent crosslinking to recombinant and expressed full-length BFL-1
BFL-1 binding / pull down [5]: striking competitive advantage for BFL-1 targeting over its acetylated counterpart
BFL-1 binding / pull down ([5]; listed as D-NA-NOXA-15 F32A SAHB): notably more BFL-1 engagement
competition with tBID for HA-BFL-1ΔC C4S/C19S interaction [12]: near total inhibition of tBID co-immunoprecipitation
targeting of native BFL-1 [14]: enhanced targeting of native BFL-1
dissociation of FLAG-MCL-1/tBID interaction [7]: neither D-NA- nor Ac-NOXA15 F32A is able to dissociate the interaction
MCL-1 engagement [8]: approximately equivalent binding to MCL-1
